Tested on: Bacillus subtilis DB104 (SP-AmyQ fusion secretion)
Test: AmyQ secretion efficiency, weighted average sort bin (1 = best secretion, 10 = worst) (bin number (weighted average, 1-10)); higher = lower secretion efficiency
In short: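 The secretion score was taken as the read-frequency-weighted mean bin number, normalised to beads per bin, with low-abundance sequences excluded. Bins came from large-particle flow cytometry sorting of occupied alginate beads (~65 nL, about 0.3 cells each, with fluorescein-starch) into 10 equally populated groups by green/red fluorescence ratio after about 13 h at room temperature and nile red staining. The cells were a B. subtilis DB104 library with mature AmyQ fused to designed signal peptides, integrated at amyE, and each bin's amplicons were Illumina-sequenced.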

Row | Sequence | AmyQ secretion efficiency
1 | MKKSQYFIVFICFFVLFSRRKHKRRAAAADS | 7.81
2 | MKLSVKIAGVLTVAAAAMTAKMYYTAKGN | 6.5
3 | MLCKKMLLFSAIASFPVSAQAKDQ | 4.84
4 | MFKKHTISLLIIFLLASAVLAKPGEAHTV | 2.82
5 | MKKRKRRNFKRFIAAFLVLALMISLVPADVLAAKR | 5.17
6 | MKKAAAVLLSLGLVFGFSYGAGHVAETKTK | 5.95
7 | MKLKSKLFVICLAAATAAGVSANAEALDF | 5.89
8 | MLGIRLLTIYIMLLGLIAWFPGAAQAEEK | 2.38
9 | MLKRTSFVSSLFISSAVLLSILTPDGQAHAQSA | 1.39
10 | MMKKLAAGLTASAIVGTTLVVTPAEAATI | 2.13
11 | MKVPKTMLKKRKRKLLLSLTATSVSAHYV | 5.33
12 | MTMLRKIIGWILLLCIIPLFAFTVISSGKEV | 6.13
13 | MKKVLMAFIICLSLILSVLAAPPSGDKAESV | 5.71
14 | MKSKWMSGLLLVAVGFSFRKKMVHAGET | 7.87
15 | MLKKIALTLCPAIVGSLLFFTVAPASAHVS | 3.73
16 | MRPVFPLKKRRVLFLSCFFGARQTEASASKR | 7.34
17 | MMIKQCRKCKRLLVFGTTAAHAEET | 6.79
18 | MRKRRKRGIQAFAGGIILATAVLAAVFYLTDEDQAAAV | 6.73
19 | MKKRFFGPIILAFILFLFSSLAGAIAIPS | 6.16
20 | MKKIVIILFMFILVMSSGFSQFQPSTVFAADK | 3.08
21 | MNKPTKLFSTLALAAGMTAAAAGGAGTCHAQQP | 1.79
22 | MLKKIALTLCPAIVGSLLFFTAPHSAHVS | 5.59
23 | MKTLRTLCVLMILSGVIFFGLKIDADDD | 6.82
24 | MAIIIAIIAAVIVIAALITFNVTNASPG | 7.21
25 | MHLIRAAGAVCLAVVLIAGCRFNEDQHQAEMENT | 6.08
26 | MKLKSKLFVICLAAAAIFRKKKVSANAEALDF | 6.32

Row | Sequence | AmyQ secretion efficiency
27 | MKIRKILLSSALSFGMLISAVPALFAGT | 5.97
28 | MIQKRKRTVSFRLVLMCTLLFVSLPITKTSAVNG [wt_amyQ] | 1.16
29 | MGMKKKLSLGVASAALGLALVGGGWWAAFN | 7.18
30 | MKLAKRVSALTPSTTLAITRKAKEL | 7.25
31 | MMKKLFHSTLIVLLFFSFFGVQPIHAAKK | 1.9
32 | MFKKHTISLLIIFLLASAVLAKPIEGHTV | 3.78
33 | MKFVKRRIIALVTILMLSVTSLFAKKRRRAKAAEH | 7.85
34 | MKKRFFGPIILAFILFAGAIAKKK | 7.24
35 | MLKKKWMVGLLAGCLAAGGAFATEN | 6.32
36 | MTMLRKIIGWILLLCIIPLFAFTVINSGKEV | 6.45
37 | MPYLKRVLLLLVTGLFMSLFAVTATASSQTG | 1.19
38 | MKGWMRTTLVVLFTIVTFGLVSPPAALMADKP | 7.14
39 | MKRLTLVCSIVFILRKLFYRLKIGTIPIQKLPVYKASAKTA | 6.99
40 | MKRTWNRCGSSYKTYYLVAGSVPFHAEAKKP | 6.5
41 | MRIFKKTYSQQGQTFLIATVNVNTAHAAID | 8.8
42 | MRKKRVITCVMAASLTLGSLLPAGYSSAKED | 3.75
43 | MRPVFPLILSAVLFLSCFFGARQTEYSASKR | 8.3
44 | MLKRTSFVSLFISSAVLLSILLPSGQAHAQSA | 1.67
45 | MRSKKLWISLLFALTLITFTMAFSNMSAQAAGK | 3.27
46 | MRMLWRSLALCGLALTLAPCCQAAEP | 1.93
47 | MKKRLIAPMLLSAASLAFFAMSGSAQFAAY | 6.43
48 | MLGSTSFVSSLFISSAVLLSILLPSGQAHAQSA | 2.1
49 | MFNRLFRRCYTSTLIMAFTLPNSVYAQKP | 5.72
50 | MIKKLAAGLTASAIVGTTLVVTPAEAATI | 2.3
51 | MKKSQYFKRRKCFFVLFSVHPIAAAAADS | 9.07
52 | MRKRKRRLILSAVLFLSCFFGARQTEASASKR | 2.98
